Measured values taken from US20250241939A1, “NUCLEIC ACID-BASED DELIVERY SYSTEMS AND USES THEREOF” (Kodikaz Therapeutic Solutions, Inc., priority 2022, published 2025).

Tested on: MM1s (multiple myeloma) cell genome
Assay: ctDNA coculture with MM1s cells, whole genome sequencing: genomic insertion sites, transposons at insertion points and SNVs (multiple myeloma)
Type: cell-based, human
Conditions: multiple myeloma; for Gene: gene at identified genomic insertion site; for Location / Chr position: identified genomic insertion site; for Location: chromosome; for No. SNP: number of single nucleotide variants (SNVs or SNPs) identified
Procedure: The integration of ctDNAs into the host cell genome was evaluated. ctDNA was extracted from patient plasma, cultured for 24 hours with cells of a matching cancer cell type or non-matching cancer cell type, and whole genome sequencing was performed. The cell lines used were MM1s (multiple myeloma, MM) and MIA (pancreatic cancer, PC).
Single nucleotide variants (SNVs) unique to the ctDNA that were found in the host cell genome under matching coculture conditions were identified.
The sequence data was used to reconstruct genomic contigs for each experimental condition by de novo assembly. […] Coculture contigs carrying a ctDNA insertion were identified using NucDiff analysis. BLAST alignment analysis further validated the gain of ctDNA fragments in coculture conditions and identified the transition points of ctDNA insertion (FIGS. 3A-3C). […] The remaining 20% inserted into a chromosomal location distinct from their site of origin.
Experiments were designed to identify the presence of transposons in ctDNA fragments. To map ctDNA genomic junctions more precisely, a PACBIO probe was ligated to multiple myeloma and pancreatic cancer ctDNA samples to label their 5′ and 3′ ends. Whole-genome sequencing of DNA from cells with ctDNA genomic integration was done using the Illumina platform. De novo assembly was performed on the sequencing output. ctDNA contigs containing PACBIO adaptor were then matched to those contigs containing inserted ctDNA sequences identified in the coculture experiments. Transposable element on ctDNA sequences at the insertion points (<100 nucleotides from transition point between cell and ctDNA) were detected and classified using RepeatMaster.
A search was conducted for transposons that preferentially target cells of matching tumor types. The lists of transposons identified at the ctDNA insertion point in matching and mismatched coculture conditions were compared (e.g., MM ctDNA with MM cells or PC cells). Transposons were selected that were uniquely or preferentially inserted in the matching conditions.
In multiple myeloma, AluSp, MER11, MER11C, AluJb, and L2a, among other subfamilies of retrotransposons were identified at the MM ctDNA insertion sites (FIG. 5B and TABLE 7).
Whole-genome sequencing and Whole exon sequencing: ctDNA was extracted from 10 MM and 10 PC patients. DNA from CD138 (+) cells and from cell lines used in in vitro experiments (MM1s and MIA) was extracted using Blood & Cell Culture DNA Mini Kit (Quiagen, MD). DNA from […] paraffin embedded pancreatic tumors was obtained using QIAamp DNA FFPE Tissue Kit Print (Qiagen, MD).
After extraction, ctDNA was ligated to the PACBIO adaptor ([…]) using the ABM DNA Library Prep Kit for Illumina Sequencing (Applied Biological Materials Inc. Canada). PACBio-labeled ctDNA and regular ctDNA were subjected to standard methods for library preparation and sequencing using Illumina and Agilent protocols, respectively. Applied Biological Materials Inc. prepared the libraries and performed whole-exon and -genome sequencing. The average target coverage was 50×.
Identification of transposable elements and its nucleotide variants: To determine the locations of transposable-like regions in contigs, sequences were analyzed and transposable elements (TEs) were identified and classified using RepeatMasker version 4.1.0 and the Dfam database (release 3.1) of repetitive DNA families was used as a reference for identifying repeats in ctDNA contig sequences that were part of qualifying structural events. For each repeat sequence identified by RepeatMasker, the overall frequency of the specific repeat (e.g., for AluSp or L1) and their parent class (e.g., SINE) was computed.
Once the TE elements were identified, hit repeats/TE sequences, unique contigs for all samples, and insertion sequence were aligned with MAFFT software version. […]

B1: 20 (nucleic acid, listed as Homo sapiens)
chain: TTCTTCTCACGGAGTGAAACTTTTCCTTTGATTGAGCAGTTTCGAAACTCTCTTTTTGTAAAATCTGCAAGTGAACATTTGGAGTGCTTTGTGGCCTATGATAGAAAAGGAAATATTTTCACTTAAAATCTAGACAGAAGCAATCTGAGAAACTTCTTTGTGATGTTTGTATTCATCTTACATAGTTAAACCTTTCTTTTGATTGAGCAGTTTTGAAACTCTCTTTTTGTCGAATCTGTAAGAGGACATTTGGAGTGCTTTCAGGCCTATGGTGAAAAAGGAAGTATCTTCTCATGAAAACTAGACAGAAGAATTCAGACAAACTTCTTTGTGATGTGTGCATTTATCTCACAGACTTGAACCTTTCTTTTGATTGAGCAGTTTGAAACACTCTTTTTGTAGAATCTGCAAGTGGACATTTGGAGCACGTGGAGGCCTATAGTGGAAATGGAAATGTCTTCACACTAAAAACTAGACAGAAGAATTCTGAGAAACTTCTTTGTGATCTTTGCATTCATCTCACAGAGTTGAACCTTTCTTTTCATTGAGCAGTTTGAAAACACTCTTTTTGTAGAATCGGCAAGTGGACATTTGGAACGCATTGCAGACTATGATGGAAAAGGAAATATCTCCA
For B1, the Gene was “AK311573”, the Location was “Chr21” and the Chr position was 10752909. The “No. SNP” value was 24.

B2: 21 (nucleic acid, listed as Homo sapiens)
chain: CAGCGCAAGTAATATATCCTGGAATTGGAAGCAGAATGGGAACTATGGACTCAGTGAAGATTGTTCTGGACATTATTTGATTCTTCTTTCTCGCTGCCAATTGGATACTTTTTTTTTTTTTTTGAGACAGAGTCT
B2 was tested, and the Gene was “TBL1XR1”, the Location was “Chr3” and the Chr position was 176878250. For the same molecule, the “No. SNP” value was 1.

B3: 22 (nucleic acid, listed as Homo sapiens)
chain: CAGCGCAAGTAATATATCCTGGAATTGGAAGCAGAATGGGAACTATGGACTCAGTGAAGATTGTTCTGGACATTATTTGATTCTTCTTTCTCGCTGCCAATTGGATACTTTTTTTTTTTTTTGAGACAGAGTCT
In the case of B3, the Gene is reported as “TBL1XR1”, the Location is reported as “Chr3” and the Chr position is reported as 176878250. For the same molecule, the “No. SNP” value was 1.

B4: 23 (nucleic acid, listed as Homo sapiens)
chain: TTCATCTTACAGAGATAAACATTTATCTTGATTCAGCAGTTTGGAAACACTGTTTTTATCCATTCTGTGAATGGACATTTGGGAGTTCATTAAGGCACACATGAAAAGGTGTATATCCCAGGGTAAAAACTAGAAGGAAGCTATCTGAGAAACCACTCTGTGGTGTGTGCATTGATCTCGCTGATTTAAAGCTTTCTTTTGATTCAGCAGTTTGGAATCACTGTTTGTGCTCATTCTGTAAATGGATATTTGGGAGCTCATTGAGGTCAATGGCAAAAAAGTGAATAACTGAGGATAAAAACTAGAAATAAGCTATCTGAGAAACGGATTTATGATGTGTGCATTCATCTCGCAAAATTAAACATTTCTTTTCCTTCAACAGTTTGGAAACACGGTTTTTATAGGATCTGCAAAGGGATATTTTGGAGCACATTGAGGTCTATGGTGTAAAAGAAAATATCTTCAGATAAAACCTAGAAAGAAGCTTTCTGAGAAATTGCATTTTGATGTGTGCATTCATCTCACAGAGTTAATACTTTTTTTTGATTCACCAGTGTGGATACACTGTTTTTGTCCATTCTGCTAATGGACCTTTGGGGGCTCATTTAGGCCAATGGCAAAAAAGTGAATATCCCAGGATAAAAACTAGAAGGAAGGTATCTGAGAAACTGCTATGTGATGTGTGCCATCATCTCACAGTCTTAAAAGTTTCTTTTCATTCACCAGTTTGGAAACAGTGTTTTTGTAGAATCTGCAAAGTCATATTTTTGAGT
B4 was tested, and the Location was “Chr16”, the Chr position was 32534349 and the “No. SNP” value was 9.

B5: 24 (nucleic acid, listed as Homo sapiens)
chain: GATGAATGCACATATCACAAAAAGTTTCTCAGATTGCTTCTGTCTAGATTTTATGTGAAGTTATTTCCTTTTCTACCATAGAACCCAAAGCACTTATAATGTCCCCTTGCAGATTCTACAAAAAGAATGTTTCAAAACTGCTCAATCAAAAGAAAGGTTCAAATTTGTGAGATGAATGCTCGCATCACCAAGAAGTTTCTCAAAATACTTCTGTCTAGTTTTTATGTGAAGACATTTCTTTTTCCGTGATAGGTCTCAAAATGATCAAAATTTCCACTTGCAAATTCTACAAAAAGAGAGTTTCAAAGCTGCTCAATCAAAAGAAAGGTTTATATCTGTGAGATGAACACACACTTCACAAAGCAGTTTCTAAGATTTCTTCTGCCTAGATTTTATGTAATGATATTTCCTTTTCTACCATACTTTGCAAACTGCTCCAAATGTCCACCTGTAGATTCTACAAAAACAGTGTTTCCAAACTGCTCAATCAAAAGAAAGGTTAACTCTGTGAGATGAACTCACACATCACAAAGAAGTTTCTCAGAATTCTTCTGTCTAGTTCTAATGTGAAGATATTTCCTTTTGGACCAGAGGCCCCAAGGCTATCGAAATGTCCCCTTGTAGATTCTACAAAAAGAGTATTTCAAAACTGGTCCATCAAGAGAAAGGCTCAACTCTGGGAGATGAATGCACACATCACAAAGAAGTTTCTCAGAATGCTTCTATCTAGTTTTTACATGAAGCTATTTCCTTTTCCACCATAAGCCTCAAAGCGCTCCAAATGTCCACTTGCAGGTTCTGCAAAAAGAGAGTTTCCAAAGTTCTCAATCAAAAGAAACGGTTAACTCTGTGAGATAAATGCACACATCACAAAGAAGTTTCTCAGAATTTTTCTGTCTAGTTTTTGTGTGAAGATATTTCATTTTC
With B5 the Gene was “AK311573”, the Location was “Chr21” and the Chr position was 10749086. The “No. SNP” value was 49.

B6: 3 (nucleic acid, listed as Homo sapiens)
chain: TCTCACCACCTCTACTACTGCCTATCTGCATCTGGGTGCACGTCCTCTGCTATTCCTTCTGTTTCTACAGAAGCTGTCCATATTTCTAAGGCTAATCCCTTGCATTTTGGTACCAGACTTCCCTGACCTACACAAAGATGATCACCCCCCAAAATTGCCTTTCTTTCCTGCATCAAGTTTTTTCTTCTCTACTGTATTATTCCTATTGCACATTAGCCCAAAAAATGCCGTTGTTTTTCCATCGGTAAAAAAAAAAAATAGAGAGAAAAAGAAAAATAATCCATTGCCGCCAATCTATCTTCTAGTCATTTTTCCATTTCTCTGTTCTCCATTCTGCATAAACCATTTTTACTTGAATTGTTTATACTTGCTGTTTACAACAAACCTCCTCTTTCTCTCCACCCCAATCAGATTTTGGTCCACATTCCTCATGCAGTGGTCAGTCCTTGGTCCTCAACCTAGTCTAGCCTGCTTGCTGGTGGGTGTGCTCTCGGGGCATTTGCTTGTGTTTGCACGACAGCTCAGTCCCTCACTTCTCTCAAGTCTTTGCTAATAACACTCTTGCATCCAAGTCTTCCCTGACCTGCTACTTAAAAACAACTCACCCCCACCCCTAGAAATCCCTATCCTCTTCCCTACGCTTTATTTTTCTCCATAATACTTATCACCATGTAGCTGAACATGTATTTTACTCACTTTTTTTTATATTGTCCATCTTCCCTCAGTGAATTGAAAGCTCCATGAGGGCAGGAGGTTTTGTTTATTGTGTTTACTGCTTTATCCCTAGCACCCAGCACAGCATATGTGATATAGTAGACACTCAATACAAATCTGATGTGTGTGTGTCT
B6 was tested, and the Gene was “AKAP6”, the Location was “Chr4” and the “No. SNP” value was “Many”.
